Source: the RNAGym collection of RNA variant scans (doi:10.1073/pnas.2313332121)
This sample holds only a part of the variants without activity.

B1: TPR 5TU (parent)
chain: GGAUCUUCUCGAUCUAACAAAAAAGACAAAUCUGCCACAAAGCUUGAGAGCAUCUUCGGAUGCAGAGGCGGCAGCCUUCGGUGGCGCGAUAGCGCCAACGUUCUCAACUAUGACACGCAAAACGCGUGCUCCGUUGAAUGGAGUUUAUCAUG

Variants of: B1
Assay: polymerase ribozyme fitness, log enrichment relative to wild type (log ratio); higher = more active; in vitro selection for triplet polymerase activity
In short: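 A single round of triplicate in vitro selection, including frozen incubation at −7 °C, was applied to PCR-built, transcribed mutant libraries of each subunit of a heterodimeric triplet polymerase ribozyme. Illumina sequencing of input and output libraries retained genotypes with ≥10 input reads and ≥1 read per output. Fitness is the base-2 logarithm of genotype enrichment divided by wild-type enrichment, from inverse-variance-weighted replicate averages.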

Point of comparison: A37G G136A U146C, “polymerase ribozyme fitness (log ratio)” value -1.88. Against it:
- A37U A98U — higher, -0.971
- C36G C43U C85U A115C C116A — lower, -4.15
- C36U U146G — lower, -3.6
- C35U A41G G68A C96G A98C C108G G126U U135C — lower, ≤ -4.2
- C35G U45C G67U G83C — lower, ≤ -4.2
- C35A U55G C57U C93A C96G C118U — lower, ≤ -4.2
- C35U G65C C76U C96A — lower, ≤ -4.2
- C35G G70A C87G U109C — lower, ≤ -4.2
- C36U A60G C75G G92C — lower, ≤ -4.2
- A37G G92U — within 0.2 log units, -2.01
- C35U C95U G126A — higher, -1.49
- C35A C69A C99U U127C — lower, ≤ -4.2
- C35G C95G — lower, -4.19
- C36G C54G A97G A98U C99U U104A C105G G117A G133C A150U — lower, ≤ -4.2
- C35U A52C G58U G59C G70U C85A G152U — lower, ≤ -4.2
- C35U G68U U90G G117A U144G — lower, ≤ -4.2
- A37G C57G C69A C85U A120U — lower, -3.21
- C35A G83C C114A — lower, ≤ -4.2
- C35U A106C U144A — lower, -2.33
- C38A A41C U61A G94A C131A G141A U144G U151A — lower, ≤ -4.2
- A37U C57G U61A G71U A91G U139G — lower, ≤ -4.2
- C38A C75G C96G — lower, ≤ -4.2
- C38A G84A — higher, -1.23
- C38A G80U C125U — lower, -2.34
- A37G G84U U104G C118G — lower, ≤ -4.2
- C35U U144A — higher, -0.455
- C35U U144G — higher, 1.13
- C38A G58C A98G A120C A121U — higher, -0.687
- A37G A47C G83U — lower, -4.12
- C36U A52C U55G G58C C125A C131G — lower, ≤ -4.2
- C35U C114U U139A — lower, ≤ -4.2
- A37C C99U C118U G143A U144A — lower, -3.39
- C36A C57A C79A G83U C93G C114U — lower, ≤ -4.2
- C35G C76G A89G — lower, -3.96
- C36U C57A — higher, -0.483
- C35U A41U C54U C76G C85A A98G — lower, ≤ -4.2
- A37C U55G G81A C87A A106C A107U G143U — lower, ≤ -4.2
- C36U A39C U82C G84U A119C A120U G133C A142U — lower, ≤ -4.2
- C36G G92C A121C C125A — lower, ≤ -4.2
- C38A G92C C93A C125G — lower, ≤ -4.2
- C35G A47C G67C A91C C103G — lower, ≤ -4.2
- C35U G70A G83A C116G A120C U134A — lower, ≤ -4.2
- C38A G58A C95G G124C C125U — higher, -1.11
- C36U C54G U55C C75U C93U U146A — lower, ≤ -4.2
- C38A A41C C54A G136U — lower, -4.11
- C36A C43G — lower, ≤ -4.2
- C35U G59C C76G G124U — lower, ≤ -4.2
- C38A U55A C76A — higher, -1.15
- C36U U56A C85G C105A C116A — lower, ≤ -4.2
- C35A C72U C118A G126C — lower, ≤ -4.2
- C38G C85G — lower, -2.66
- C35U A60G U102C C116A — lower, -3.97
- C35A A98G — lower, -3.17
- C36A G143U — lower, -4.12
- C35U A52G U56A U109G A119U — lower, -3.89
- A37G U56G — higher, -1.45
- C36U C108U — lower, ≤ -4.2
- C36A C57A C99G A106U A115C — lower, ≤ -4.2
- C35U G86A — higher, -1.37
- C36A A37C C43A U61A C85G — lower, ≤ -4.2
- A37G A47G G92C — lower, -3.05
- A37C C87U A119U G128C — lower, -3.46
- C35U C93G G126A C131U U139A — lower, -4.11
- C35A G94C A106G — lower, -3.77
- C38A C63A U90A G124U — lower, ≤ -4.2
- C36A G58A G67U G81C C103G A113U U134G G141U — lower, ≤ -4.2
- C38G C54U C57U U146C — higher, -1.16
- C35U A97U U134A — lower, -3.07
- C35A G68A C95G C132G — lower, ≤ -4.2
- C38A G70C G126C — lower, -3.53
- C36A U56G C103G A142G G143C — lower, ≤ -4.2
- C35A C57A G83U G94C — lower, ≤ -4.2
- C36A A49U C63U C79G C87U A106G G133A U144C — lower, ≤ -4.2
- C36U C85A C93A C114U — lower, ≤ -4.2
- C35U G50A U53A U56A C85A C93A C95U — lower, ≤ -4.2
- A37C U44A C87A G94A U134G G141U — lower, ≤ -4.2
- C36U C96G G117U G152A — lower, -3.09
- C36U C85A — lower, -2.75
- C36U C85U — within 0.2 log units, -1.83
- A37C C87A — lower, ≤ -4.2
- C35A C51U G59C A64G G83A — lower, ≤ -4.2
- C35U G81C U109G C116U — lower, -3.18
